Values of other authors in publication PMC2910557.
Like-named read-outs stand apart in the source and are kept apart here.

Key:
[1] = biological target: pHtrII (Natronomonas pharaonis) (UniProt P42259)
[2] = biological target: pHtrII (Natronomonas pharaonis) (UniProt P42259); remark: listed apart in the source

Sequence of UniProt P42259 (P42259 whole entry): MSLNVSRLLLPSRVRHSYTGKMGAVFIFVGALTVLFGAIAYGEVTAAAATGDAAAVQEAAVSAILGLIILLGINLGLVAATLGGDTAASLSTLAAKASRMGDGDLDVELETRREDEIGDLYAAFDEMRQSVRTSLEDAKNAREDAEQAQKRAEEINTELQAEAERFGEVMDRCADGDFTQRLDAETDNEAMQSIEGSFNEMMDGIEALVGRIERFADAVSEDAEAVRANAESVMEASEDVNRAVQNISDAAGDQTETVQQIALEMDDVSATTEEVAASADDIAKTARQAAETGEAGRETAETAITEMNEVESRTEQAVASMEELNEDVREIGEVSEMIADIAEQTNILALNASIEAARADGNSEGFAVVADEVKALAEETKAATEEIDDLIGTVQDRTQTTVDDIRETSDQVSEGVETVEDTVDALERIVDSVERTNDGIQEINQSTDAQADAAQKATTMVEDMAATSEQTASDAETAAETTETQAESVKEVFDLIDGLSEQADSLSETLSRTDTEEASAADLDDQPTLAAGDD

Row | Substance | Kd [1] [nM] | Kd [2] [nM]
1 | ppR (sensory rhodopsin II) (from UniProt P42196) | 160 | –
2 | ppR M intermediate (ppRM) (from UniProt P42196) | – | 5000
